Laboratory results: US5447852A, “DNA encoding cyclophilin C, and recombinant methods employing it” (The Board of Trustees of the Leland Stanford Junior …, priority 1993, dated 1995)
Each block holds one molecule with its values, some of them ahead of it.

Tests used:
[1] = molecular target: cyp C:p77 complex (cyp C-GST fusion protein and 77Kd protein) (Mus musculus, UniProt P30412)
Procedure: (§1) FIG. 6. […] Control samples were incubated with 10 μg of GST. Experimental samples were incubated with 10 μg of cyp C-GST fusion protein plus the indicated drug concentration.
(§2) 10^7 TCA precipitable counts of labeled lysate were used per reaction. Reaction volumes were brought up to 1 ml in lysis buffer. Each reaction was precleared by incubation with 10 μg of glutathione-s-transferase (GST) and 100 μl of 50% glu-ag solution for 2 hours at 4° C. with gentle agitation. Reactions were spun 5 minutes in a microfuge at 4° C., and the pellets were discarded. To the precleared lysates, 10 μg of cyp C fusion protein was added, along with 30 μl of a 50% solution of glu-ag. Reactions were incubated at 4° with gentle agitation for 3-4 hours, at which time tubes were spun 5 minutes in a microfuge at 4° C., and the supernatants were removed. Glu-ag pellets were washed 4× with 1 ml of cold lysis buffer, being transferred to a fresh tube for the final wash. […], and the pellet was resuspended in 50- 100 μl of SDS-PAGE sample buffer containing β-mercaptoethanol. Samples were boiled 5 minutes and loaded onto 9.5% SDS-PAGE gels. Gels were stained/fixed in methanol: acetic acid: coomassie blue, and destained in methanol: acetic acid.

cyp A mRNA in AC 6 cells = experiment: Northern analysis of cyp A mRNA in AC 6 cells; assay type: cell-based, murine; conditions: AC 6 cells (FIG. 3)
Procedure: Individual bacterial colonies containing phagemid vectors which had undergone two rounds of subtraction were cultured, and plasmid miniprep DNA was prepared from them by the NaOH/SDS, NaAcetate method. cDNA inserts were isolated by digestion of the plasmid DNA with Stu 1 and Hd III followed by low-melt agarose gel electrophoresis. Inserts were visualized by UV light and excised and purified by organic extraction and precipitation for use as templates for ^32 p probe synthesis. Purified inserts were labeled by random priming in the presence of 50 μCi [alpha-32P] dCTP (Amersham) and were purified by chromatography over a Sephadex G-50 column. AC 6MRNA prepared from IL-1 induced and uninduced cultures was electrophoresed on 1.0% formaldehyde-agarose gels using 0.5 μg RNA/lane as described (Sambrook, 1989). RNA was blotted onto nitrocellulose filters and prehybridized and hybridized in a solution containing 50% formamide, 6×SSC, 5×Denhardt's solution, 5 mM NaPO4, 100 ug/ml sheared, denatured salmon sperm DNA, and 50 ug/ml yeast tRNA. Labeled cDNA probe, prepared as described above, was hybridized for 16 hours at 45° C. […], followed by washing in 0.2×SSC plus 0.1% SDS at 65° C. for 30 minutes. Filters were then placed on film for autoradiographic visualization. […]

[2] = molecular target: T1, cyp C:CsA:p55 complex (cyp C-GST fusion protein and 55Kd protein) (Mus musculus, UniProt P30412); experiment: Cyp C affinity reactions with 35S labeled cell lysate: 55Kd protein; assay type: binding, murine; conditions: AC 6 cells, 77Kd and 55Kd proteins (FIG. 5)
T1 construct: A portion of the cyp C cDNA encoding aa 16-212 was cloned into the bacterial expression vector pGEX 2T; made in house; host or cells: E. coli MC1061 (cyp C-GST); 55Kd protein from labelled AC 6 cell lysate
Procedure: as §1, §2

cyp C mRNA in AC 6 cells = experiment: Northern analysis of cyp C mRNA in AC 6 cells; assay type: cell-based, murine
Procedure: Purified inserts were labeled by random priming in the presence of 50 μCi [alpha-32P] dCTP (Amersham) and were purified by chromatography over a Sephadex G-50 column. […] RNA was blotted onto nitrocellulose filters and prehybridized and hybridized in a solution containing 50% formamide, 6×SSC, 5×Denhardt's solution, 5 mM NaPO4, 100 ug/ml sheared, denatured salmon sperm DNA, and 50 ug/ml yeast tRNA. Labeled cDNA probe, prepared as described above, was hybridized for 16 hours at 45° C. for 30 minutes, followed by washing in 0.2×SSC plus 0.1% SDS at 65° C. for 30 minutes. Filters were then placed on film for autoradiographic visualization.
Twenty μg of total RNA from each source was run on a 1.2% agarose formaldehyde gel and blotted onto Genescreen (DuPont) membrane. Filters were hybridized as described above for 18 hours. The final wash conditions were 0.2×SSC, 0.1% SDS at 65° C. […] The autoradiograms presented in the Figure represent exposures of 3 days at -70° C. with an intensifying screen for both the cyp A and the cyp C probes.

[3] = molecular target: cyp C-GST fusion protein (glutathione-s-transferase fused to aa 16-212 of murine cyclophilin C), without CsA (murine)

cyp C:p77 complex (cyp C-GST fusion protein and 77Kd protein), sequence (P30412 with tags, fused parts or gaps limits assumed): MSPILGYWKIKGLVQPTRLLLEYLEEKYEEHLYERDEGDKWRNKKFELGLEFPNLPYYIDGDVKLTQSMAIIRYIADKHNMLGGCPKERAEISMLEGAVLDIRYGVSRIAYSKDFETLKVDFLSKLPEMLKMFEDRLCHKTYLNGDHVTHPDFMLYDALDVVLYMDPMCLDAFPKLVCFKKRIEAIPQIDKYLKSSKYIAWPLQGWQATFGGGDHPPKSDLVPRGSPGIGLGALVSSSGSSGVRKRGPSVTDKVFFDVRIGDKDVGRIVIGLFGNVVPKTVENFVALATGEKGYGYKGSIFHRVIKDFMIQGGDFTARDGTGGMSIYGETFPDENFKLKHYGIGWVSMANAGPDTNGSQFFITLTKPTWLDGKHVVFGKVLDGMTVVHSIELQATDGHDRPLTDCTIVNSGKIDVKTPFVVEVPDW
T1 sequence (P30412 with tags, fused parts or gaps limits assumed): as above

effect on the binding of cyp C to the 77Kd protein [1]: no effect
Molecule: C=CC[C@@H]1/C=C(\C)C[C@H](C)C[C@H](OC)[C@H]2O[C@@](O)(C(=O)C(=O)N3CCCC[C@H]3C(=O)O[C@H](/C(C)=C/[C@@H]3CC[C@@H](O)[C@H](OC)C3)[C@H](C)[C@@H](O)CC1=O)[C@H](C)C[C@@H]2OC [FK506]

Molecule: IL-1: hematopoietic and inflammatory cytokine; unpurified recombinant human IL-1 alpha used for induction of AC 6 cells
elevation of cyp A mRNA in response to IL-1 (cyp A mRNA in AC 6 cells): elevated approximately three-fold
effect of IL-1 in the culture media during metabolic labeling on the associating proteins [2]: no obvious effect
elevation of cyp C mRNA in response to IL-1 (cyp C mRNA in AC 6 cells; AC 6 cells (FIG. 3)): elevated approximately three-fold
induction of cyp C message levels (cyp C mRNA in AC 6 cells; AC 6 stromal cell line treated with IL-1): 2-3 fold

CsA concentration that completely inhibits the isomerase activity of cyp C [3]: 2 µg/mL
Molecule: cyclosporin A (peptide)
